Test results taken from patent US20130122568.
Residue numbers refer to the chain shown, from its start.

How the values were obtained:
Assay in all cases: cleavage_in_vitro
[1] = target: T1, ScaI-HF H193A/S201F (Streptomyces caespitosus) (UniProt O52691); details: NEB2, 37 C
T1 sequence: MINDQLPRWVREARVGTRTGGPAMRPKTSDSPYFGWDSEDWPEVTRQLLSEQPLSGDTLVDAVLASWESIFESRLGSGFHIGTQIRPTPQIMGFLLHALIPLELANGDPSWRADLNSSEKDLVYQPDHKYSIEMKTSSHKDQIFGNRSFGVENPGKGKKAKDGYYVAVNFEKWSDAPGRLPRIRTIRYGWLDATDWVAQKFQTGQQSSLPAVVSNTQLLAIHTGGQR

[2] = system: T2, BsmBI-HF N185Y/R232A (Bacillus stearothermophilus); details: NEB2, 55 C
T2 sequence: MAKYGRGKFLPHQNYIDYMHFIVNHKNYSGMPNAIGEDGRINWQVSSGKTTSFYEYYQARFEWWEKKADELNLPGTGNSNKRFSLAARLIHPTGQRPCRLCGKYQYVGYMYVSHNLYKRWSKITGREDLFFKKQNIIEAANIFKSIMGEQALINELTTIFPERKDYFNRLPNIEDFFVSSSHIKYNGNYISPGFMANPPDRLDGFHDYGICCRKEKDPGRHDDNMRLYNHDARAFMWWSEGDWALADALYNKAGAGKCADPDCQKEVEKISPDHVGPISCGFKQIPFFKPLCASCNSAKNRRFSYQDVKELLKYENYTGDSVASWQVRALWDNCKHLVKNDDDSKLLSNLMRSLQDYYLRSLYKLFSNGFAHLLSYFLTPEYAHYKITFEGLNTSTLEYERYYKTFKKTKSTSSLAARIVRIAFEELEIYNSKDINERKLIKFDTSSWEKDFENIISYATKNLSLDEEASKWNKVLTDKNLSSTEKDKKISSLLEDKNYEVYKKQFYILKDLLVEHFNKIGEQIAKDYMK

[3] = target: T3, BamHI-HF E163A/E167T (Bacillus amyloliquefaciens) (UniProt P23940); details: NEB1, 37 C
T3 sequence: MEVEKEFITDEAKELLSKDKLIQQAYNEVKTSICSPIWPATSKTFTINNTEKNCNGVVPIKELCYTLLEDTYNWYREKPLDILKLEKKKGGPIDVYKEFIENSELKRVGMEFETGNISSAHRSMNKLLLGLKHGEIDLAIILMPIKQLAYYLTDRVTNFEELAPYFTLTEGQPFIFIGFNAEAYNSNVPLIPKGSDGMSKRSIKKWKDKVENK

[4] = target: EcoRI (Escherichia coli RY13) (UniProt P00642); details: NEB3, 37 C
[5] = system: T4, SspI (Sphaerotilus species); details: NEB1, 37 C
T4 sequence: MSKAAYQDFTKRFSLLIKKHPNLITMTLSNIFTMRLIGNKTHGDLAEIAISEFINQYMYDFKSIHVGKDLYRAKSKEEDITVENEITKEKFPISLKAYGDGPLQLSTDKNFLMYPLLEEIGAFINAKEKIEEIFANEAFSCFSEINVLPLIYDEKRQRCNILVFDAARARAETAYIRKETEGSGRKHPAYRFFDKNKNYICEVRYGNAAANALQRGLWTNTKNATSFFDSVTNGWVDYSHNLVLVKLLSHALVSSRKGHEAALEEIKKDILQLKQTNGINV

[6] = system: T5, SphI (Streptomyces phaeochromogenes); details: NEB1, 37 C
T5 sequence: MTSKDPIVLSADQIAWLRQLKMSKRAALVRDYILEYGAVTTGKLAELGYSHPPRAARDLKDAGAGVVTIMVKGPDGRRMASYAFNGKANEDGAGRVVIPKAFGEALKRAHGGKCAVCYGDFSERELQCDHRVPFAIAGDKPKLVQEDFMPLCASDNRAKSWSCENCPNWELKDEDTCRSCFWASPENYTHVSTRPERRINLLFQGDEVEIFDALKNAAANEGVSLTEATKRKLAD

[7] = system: T6, NcoI-HF A2T/R31A (Nocardia corallina); details: NEB4, 37 C
T6 sequence: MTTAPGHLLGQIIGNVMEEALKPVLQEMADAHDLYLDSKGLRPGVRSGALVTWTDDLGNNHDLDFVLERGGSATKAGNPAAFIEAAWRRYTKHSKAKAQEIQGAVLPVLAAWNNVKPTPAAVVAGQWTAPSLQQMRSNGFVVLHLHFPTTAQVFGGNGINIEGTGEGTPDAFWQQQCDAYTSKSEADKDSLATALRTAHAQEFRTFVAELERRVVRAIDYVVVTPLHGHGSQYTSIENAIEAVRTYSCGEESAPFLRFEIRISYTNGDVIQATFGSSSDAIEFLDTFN

[8] = system: T7, BspQI (Bacillus sphaericus); details: NEB3, 50 C
T7 sequence: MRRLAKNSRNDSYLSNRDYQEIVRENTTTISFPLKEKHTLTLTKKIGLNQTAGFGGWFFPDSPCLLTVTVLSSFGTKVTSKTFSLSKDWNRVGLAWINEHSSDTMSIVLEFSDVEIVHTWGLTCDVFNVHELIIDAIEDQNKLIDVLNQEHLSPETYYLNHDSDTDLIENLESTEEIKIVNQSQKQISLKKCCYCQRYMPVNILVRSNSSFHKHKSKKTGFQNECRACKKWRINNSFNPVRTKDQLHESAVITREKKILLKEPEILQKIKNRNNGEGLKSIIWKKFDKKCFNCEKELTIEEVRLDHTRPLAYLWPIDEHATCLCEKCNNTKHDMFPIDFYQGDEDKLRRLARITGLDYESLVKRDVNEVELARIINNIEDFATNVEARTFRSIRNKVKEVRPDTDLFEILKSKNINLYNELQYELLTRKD

BstXI-HF N65A = details: NEB2, 55 C
[9] = system: T8, NcoI (Nocardia corallina); details: NEB1, 37 C
T8 sequence: T6 sequence with T2A, A31R

EcoRI (Escherichia coli RY13), sequence (P00642 whole entry): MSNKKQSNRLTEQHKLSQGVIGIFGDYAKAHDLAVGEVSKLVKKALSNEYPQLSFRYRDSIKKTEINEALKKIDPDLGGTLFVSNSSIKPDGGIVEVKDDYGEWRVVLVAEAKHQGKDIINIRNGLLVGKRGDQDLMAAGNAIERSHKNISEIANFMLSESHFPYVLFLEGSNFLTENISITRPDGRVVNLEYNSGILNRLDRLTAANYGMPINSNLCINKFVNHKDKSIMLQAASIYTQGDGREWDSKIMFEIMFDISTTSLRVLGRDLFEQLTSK

lambda phage DNA
activity (fidelity index) [1]: 1000
activity (fidelity index) [2]: > 500
activity (fidelity index) [3]: > 4000
activity (fidelity index) [4]: 250
activity (fidelity index) [5]: 64
activity (fidelity index) [6]: 64
activity (fidelity index) [7]: > 64000
activity (fidelity index) [8]: 32
activity (fidelity index) (BstXI-HF N65A): > 250
activity (fidelity index) [9]: 120
